Data reported in publication PMC13038415 (Nature Chemical Biology, 2026).
Residue numbers refer to the chain shown, from its start. Names may count otherwise. “And” between values parts separate entries of the source, which are not always exact repeats. Identical values can stand only once. Like-named read-outs stand apart in the source and are kept apart here.

B1: Pac1 (full-length; yeast homolog of Lis1) (natural protein)
chain: MTNWQQQLPLTDTQKNELDKSVLRYLNWNYKQTVRHEHAQDYESVRHAIVTLSGFLLQESVDRQEFISNNDTSNESMVDIDELLLPKKWNSIVRLQKKIIELEQNTETLVSQIKDLNTQVSELAQFKPTTSNGTSAHNVLKWIPRNLPSCLINVESSVTSVKLHPNLPIVFVATDHGKLYAFDLFNYTIPLASLQSHTKAITSMDVLFTNYTNSSKKNYLVIVTASKDLQIHVFKWVSEECKFQQIRSLLGHEHIVSAVKIWQKNNDVHIASCSRDQTVKIWDFHNGWSLKTFQPHSQWVRSIDVLGDYIISGSHDTTLRLTHWPSGNGLSVGTGHEFPIEKVKFIHFIEDSPEIRFRTPSTDRYKNWGMQYCVSASRDRTIKIWEIPLPTLMAHRAPIPNPTDSNFRCVLTLKGHLSWVRDISIRGQYLFSCADDKSVRCWDLNTGQCLHVWEKLHTGFVNCLDLDVDFDSNVTPRQMMVTGGLDCKSNVFMR
B2: Pac1 site^linker mutant (T403A, S405A, N406A, R320A, V332A) (natural protein)
chain: B1 chain with R320A, V332A, T403A, S405A, N406A

Columns and labels:
Experiment in all cases: mass photometry
[1] = biological target: full-length dynein complex AAA3^WB (E2488Q) (yeast, UniProt P36022 1-4092; P40960 1-533; Q04949 1-312; Q02647 1-92, E2488Q)
[2] = biological target: T1, full-length dynein complex AAA3^WA (dynein-K2424A) (yeast, UniProt P36022 1-4092; P40960 1-533; Q04949 1-312; Q02647 1-92, K2424A)
T1 sequence (P36022 whole entry K2424A, chain 1 of 4): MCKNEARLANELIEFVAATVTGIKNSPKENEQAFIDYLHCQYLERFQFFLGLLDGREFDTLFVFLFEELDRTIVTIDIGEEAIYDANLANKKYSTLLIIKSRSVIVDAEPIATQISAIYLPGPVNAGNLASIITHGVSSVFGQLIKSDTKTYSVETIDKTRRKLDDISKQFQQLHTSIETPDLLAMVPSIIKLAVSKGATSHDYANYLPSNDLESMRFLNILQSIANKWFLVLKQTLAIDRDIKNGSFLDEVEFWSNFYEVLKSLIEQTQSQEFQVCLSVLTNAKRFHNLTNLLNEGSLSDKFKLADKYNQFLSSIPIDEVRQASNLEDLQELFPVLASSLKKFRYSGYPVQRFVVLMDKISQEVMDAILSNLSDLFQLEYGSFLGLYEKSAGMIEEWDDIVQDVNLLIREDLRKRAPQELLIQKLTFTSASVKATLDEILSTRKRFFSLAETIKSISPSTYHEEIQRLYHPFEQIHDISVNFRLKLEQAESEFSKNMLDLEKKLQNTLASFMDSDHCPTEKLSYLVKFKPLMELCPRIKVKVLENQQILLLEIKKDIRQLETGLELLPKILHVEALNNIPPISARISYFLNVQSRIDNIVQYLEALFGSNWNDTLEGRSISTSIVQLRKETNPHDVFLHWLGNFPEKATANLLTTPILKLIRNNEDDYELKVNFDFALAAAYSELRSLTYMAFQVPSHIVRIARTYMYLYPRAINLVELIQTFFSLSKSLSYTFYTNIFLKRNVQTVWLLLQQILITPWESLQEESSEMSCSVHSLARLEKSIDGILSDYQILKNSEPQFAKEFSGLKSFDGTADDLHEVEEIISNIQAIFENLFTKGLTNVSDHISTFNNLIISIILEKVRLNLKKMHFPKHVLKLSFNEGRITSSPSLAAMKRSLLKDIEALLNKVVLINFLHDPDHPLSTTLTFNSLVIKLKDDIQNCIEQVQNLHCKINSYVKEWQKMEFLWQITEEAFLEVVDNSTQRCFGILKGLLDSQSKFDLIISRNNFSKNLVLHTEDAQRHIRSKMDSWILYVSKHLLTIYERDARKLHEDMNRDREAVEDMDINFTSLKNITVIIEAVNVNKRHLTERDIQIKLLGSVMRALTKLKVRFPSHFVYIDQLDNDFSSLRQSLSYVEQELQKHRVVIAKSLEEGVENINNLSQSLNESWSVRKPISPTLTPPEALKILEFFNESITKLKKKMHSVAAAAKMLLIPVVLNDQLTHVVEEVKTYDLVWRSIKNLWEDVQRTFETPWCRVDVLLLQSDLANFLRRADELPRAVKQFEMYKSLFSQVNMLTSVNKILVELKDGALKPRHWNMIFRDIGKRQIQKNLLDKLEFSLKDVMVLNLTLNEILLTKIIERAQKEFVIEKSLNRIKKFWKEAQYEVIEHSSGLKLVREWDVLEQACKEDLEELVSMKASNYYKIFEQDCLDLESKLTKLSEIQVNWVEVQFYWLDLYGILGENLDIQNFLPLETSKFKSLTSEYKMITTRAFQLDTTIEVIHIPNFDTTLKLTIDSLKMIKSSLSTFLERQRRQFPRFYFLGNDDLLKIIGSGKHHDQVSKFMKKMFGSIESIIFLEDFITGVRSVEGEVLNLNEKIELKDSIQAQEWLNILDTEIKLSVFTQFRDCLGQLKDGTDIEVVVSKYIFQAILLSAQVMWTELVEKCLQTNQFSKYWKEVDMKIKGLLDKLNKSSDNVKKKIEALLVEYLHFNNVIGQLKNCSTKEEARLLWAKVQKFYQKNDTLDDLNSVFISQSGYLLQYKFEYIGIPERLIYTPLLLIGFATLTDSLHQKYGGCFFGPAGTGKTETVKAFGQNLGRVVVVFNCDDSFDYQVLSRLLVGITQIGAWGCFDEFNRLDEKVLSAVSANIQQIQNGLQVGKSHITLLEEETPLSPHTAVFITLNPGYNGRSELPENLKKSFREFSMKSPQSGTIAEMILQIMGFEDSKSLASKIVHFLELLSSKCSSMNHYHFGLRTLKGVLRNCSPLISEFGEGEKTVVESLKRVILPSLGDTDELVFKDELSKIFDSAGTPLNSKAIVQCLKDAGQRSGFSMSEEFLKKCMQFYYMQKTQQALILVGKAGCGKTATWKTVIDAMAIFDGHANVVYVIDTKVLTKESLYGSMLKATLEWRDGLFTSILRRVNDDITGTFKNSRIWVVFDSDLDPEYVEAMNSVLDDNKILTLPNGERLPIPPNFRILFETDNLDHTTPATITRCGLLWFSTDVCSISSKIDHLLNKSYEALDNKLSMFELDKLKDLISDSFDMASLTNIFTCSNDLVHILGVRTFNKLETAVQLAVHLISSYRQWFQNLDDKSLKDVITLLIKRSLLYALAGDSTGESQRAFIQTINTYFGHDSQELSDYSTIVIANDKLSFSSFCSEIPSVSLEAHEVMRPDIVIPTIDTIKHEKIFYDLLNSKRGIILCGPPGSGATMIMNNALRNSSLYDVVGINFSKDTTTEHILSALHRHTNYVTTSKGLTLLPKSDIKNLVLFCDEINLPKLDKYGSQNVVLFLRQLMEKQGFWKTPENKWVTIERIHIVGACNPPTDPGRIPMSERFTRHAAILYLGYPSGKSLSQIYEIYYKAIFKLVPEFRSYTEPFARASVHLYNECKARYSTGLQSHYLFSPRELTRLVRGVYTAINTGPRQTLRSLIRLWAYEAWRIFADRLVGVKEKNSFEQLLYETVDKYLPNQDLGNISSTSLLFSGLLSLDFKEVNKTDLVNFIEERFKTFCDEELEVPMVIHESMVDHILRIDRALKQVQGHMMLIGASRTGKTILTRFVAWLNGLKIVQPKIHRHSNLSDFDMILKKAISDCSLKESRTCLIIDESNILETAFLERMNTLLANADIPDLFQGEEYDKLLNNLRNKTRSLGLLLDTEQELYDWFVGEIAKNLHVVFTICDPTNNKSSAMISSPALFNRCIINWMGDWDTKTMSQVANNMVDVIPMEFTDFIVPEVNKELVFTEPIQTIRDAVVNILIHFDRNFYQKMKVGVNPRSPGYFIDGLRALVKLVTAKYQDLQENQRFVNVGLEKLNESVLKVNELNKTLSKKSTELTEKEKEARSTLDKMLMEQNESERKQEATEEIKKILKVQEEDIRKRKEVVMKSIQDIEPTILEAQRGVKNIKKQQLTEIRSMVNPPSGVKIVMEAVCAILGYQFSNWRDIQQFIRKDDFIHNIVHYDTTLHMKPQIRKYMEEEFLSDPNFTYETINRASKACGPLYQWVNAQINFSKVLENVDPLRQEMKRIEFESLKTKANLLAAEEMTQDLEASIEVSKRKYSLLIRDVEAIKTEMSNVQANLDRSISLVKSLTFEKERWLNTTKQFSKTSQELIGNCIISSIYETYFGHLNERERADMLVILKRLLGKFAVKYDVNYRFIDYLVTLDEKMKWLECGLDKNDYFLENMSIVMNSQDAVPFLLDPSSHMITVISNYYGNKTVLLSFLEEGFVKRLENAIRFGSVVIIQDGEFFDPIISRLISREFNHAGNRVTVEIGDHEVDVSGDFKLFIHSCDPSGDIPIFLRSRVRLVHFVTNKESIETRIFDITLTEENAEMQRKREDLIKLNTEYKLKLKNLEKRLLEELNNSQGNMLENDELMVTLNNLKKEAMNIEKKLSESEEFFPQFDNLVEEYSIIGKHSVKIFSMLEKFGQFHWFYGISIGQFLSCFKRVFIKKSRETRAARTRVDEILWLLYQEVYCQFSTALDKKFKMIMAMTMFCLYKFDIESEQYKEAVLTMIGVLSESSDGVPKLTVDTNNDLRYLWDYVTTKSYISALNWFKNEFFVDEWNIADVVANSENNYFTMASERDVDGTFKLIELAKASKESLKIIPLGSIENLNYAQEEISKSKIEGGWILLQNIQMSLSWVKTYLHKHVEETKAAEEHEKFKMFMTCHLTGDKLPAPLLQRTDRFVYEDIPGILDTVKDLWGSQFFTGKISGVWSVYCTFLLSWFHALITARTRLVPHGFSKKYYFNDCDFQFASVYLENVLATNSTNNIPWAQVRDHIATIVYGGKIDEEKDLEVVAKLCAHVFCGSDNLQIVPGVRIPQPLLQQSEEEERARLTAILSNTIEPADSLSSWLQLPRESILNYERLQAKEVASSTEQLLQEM
T1 sequence (P40960 whole entry, chain 2 of 4): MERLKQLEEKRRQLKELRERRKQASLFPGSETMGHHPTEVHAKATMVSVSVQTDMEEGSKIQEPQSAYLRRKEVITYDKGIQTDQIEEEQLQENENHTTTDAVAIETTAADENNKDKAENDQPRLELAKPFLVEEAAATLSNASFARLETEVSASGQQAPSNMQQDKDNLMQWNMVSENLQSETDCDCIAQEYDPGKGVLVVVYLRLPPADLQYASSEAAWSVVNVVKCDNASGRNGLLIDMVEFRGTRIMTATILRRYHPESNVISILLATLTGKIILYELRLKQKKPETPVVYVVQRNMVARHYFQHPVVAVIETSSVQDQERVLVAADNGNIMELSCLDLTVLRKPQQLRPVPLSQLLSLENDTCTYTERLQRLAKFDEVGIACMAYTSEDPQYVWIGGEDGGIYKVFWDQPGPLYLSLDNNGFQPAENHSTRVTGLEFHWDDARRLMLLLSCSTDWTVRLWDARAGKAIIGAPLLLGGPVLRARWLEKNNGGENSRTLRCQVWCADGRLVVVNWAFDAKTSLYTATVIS
T1 sequence (Q04949 whole entry, chain 3 of 4): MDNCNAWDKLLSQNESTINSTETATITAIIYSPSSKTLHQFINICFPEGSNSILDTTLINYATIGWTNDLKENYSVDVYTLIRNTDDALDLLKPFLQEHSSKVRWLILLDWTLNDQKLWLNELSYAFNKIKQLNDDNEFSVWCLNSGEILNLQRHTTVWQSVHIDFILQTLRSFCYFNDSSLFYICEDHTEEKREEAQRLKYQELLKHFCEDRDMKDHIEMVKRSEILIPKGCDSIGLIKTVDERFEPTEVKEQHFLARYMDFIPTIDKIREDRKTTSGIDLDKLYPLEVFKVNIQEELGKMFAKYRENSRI
T1 sequence (Q02647 whole entry, chain 4 of 4): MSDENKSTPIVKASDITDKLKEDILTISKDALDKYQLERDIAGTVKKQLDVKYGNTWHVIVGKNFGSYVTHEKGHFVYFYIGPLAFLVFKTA

[3] = biological target: T1, full-length dynein complex AAA3^WA …; remark: listed apart in the source
[4] = biological target: T1, full-length dynein complex AAA3^WA …; remark: listed apart in the source

Row | Binder | stoichiometry N [1] | stoichiometry N [2] | stoichiometry N [3] | binding result [4]
1 | B1 | 1 Pac1 dimer per dynein complex and 2 Pac1 dimers per dynein complex | 1 Pac1 dimer per dynein complex | 2 Pac1 dimers per dynein complex | 
2 | B2 |  |  |  | binds
